Assay in all cases: negative stain EM with 2D averaging; DH loading reaction in solution, no downstream purification: 10 nM MH-NCP-ARS1-NCP DNA, 20 nM ORC, 30 nM Cdc6, 0.5 mM ATP, 20 nM MCM-Cdt1; 25 mM HEPES pH 7.6, 100 mM potassium chloride, 10 mM magnesium acetate, 1 mM DTT; 30 °C, 30 min; DH counted as % of averageable MCM particles, N = 3; assemblies form on DNA
The target in experiment [1] is MCM-Cdt1 complex with Mcm7 R593A (Arginine Finger variant) (Saccharomyces cerevisiae) (UniProt P29469).
The target in experiment [2] is MCM-Cdt1 complex, wild type (expressed in yeast) (Saccharomyces cerevisiae) (UniProt P29469).
For experiment [3], the target named is MCM-Cdt1 complex with Mcm6 R708A (Arginine Finger variant) (Saccharomyces cerevisiae) (UniProt P29469).
Experiment [4] has as its target MCM-Cdt1 complex with Mcm3 R542A (Arginine Finger variant) (Saccharomyces cerevisiae) (UniProt P29469).
Experiment [5] concerns the target MCM-Cdt1 complex with Mcm2 R676A (Arginine Finger variant) (Saccharomyces cerevisiae) (UniProt P29469).
Experiment [6] concerns the target MCM-Cdt1 complex with Mcm4 R701A (Arginine Finger variant) (Saccharomyces cerevisiae) (UniProt P29469).

This is an account of results in publication PMC11748629, “Unidirectional MCM translocation away from ORC drives origin licensing” (Nature Communications, 2025).

“MCM-Cdt1 complex with Mcm7 R593A (Arginine Finger variant), P29469 1-868; P24279 1-971; P30665 1-933; P29496 1-775; P53091 1-1017; P38132 1-845; P47112 1-604” had a DH as % of averageable MCM particles in experiment [1] of 5.3%.
Regarding “MCM-Cdt1 complex, wild type (expressed in yeast), P29469 1-868; P24279 1-971; P30665 1-933; P29496 1-775; P53091 1-1017; P38132 1-845; P47112 1-604”, the DH as % of averageable MCM particles in experiment [2] turned out to be 56.5%.
Substance “MCM-Cdt1 complex with Mcm6 R708A (Arginine Finger variant), P29469 1-868; P24279 1-971; P30665 1-933; P29496 1-775; P53091 1-1017; P38132 1-845; P47112 1-604” registered a DH as % of averageable MCM particles in experiment [3] of 2.4%.
Consider “MCM-Cdt1 complex with Mcm3 R542A (Arginine Finger variant), P29469 1-868; P24279 1-971; P30665 1-933; P29496 1-775; P53091 1-1017; P38132 1-845; P47112 1-604”, for which, in experiment [4], the DH as % of averageable MCM particles stood at 13.9%.
Substance “MCM-Cdt1 complex with Mcm2 R676A (Arginine Finger variant), P29469 1-868; P24279 1-971; P30665 1-933; P29496 1-775; P53091 1-1017; P38132 1-845; P47112 1-604” came in with a DH as % of averageable MCM particles in experiment [5] of 0.5%.
In the case of “MCM-Cdt1 complex with Mcm4 R701A (Arginine Finger variant), P29469 1-868; P24279 1-971; P30665 1-933; P29496 1-775; P53091 1-1017; P38132 1-845; P47112 1-604”, in experiment [6], the DH as % of averageable MCM particles was 22.4%.
